The target in test [1] is UG2 fusion of the MET-binding peptide aMD5 (human). In words: SPR. On the technique in general: SPR reads the build-up and loss of mass on a sensor chip optically.
For test [2], the target named is UG2 fusion of the MET-binding peptide aMD4 (human). In words: SPR.
Another test deals with aMD4 (free peptide). In words: SPR; value cited from earlier paper.
Another test has as its target aMD5 (free peptide). In words: SPR; value cited from earlier paper.
For test [3], the target named is Fc proteins lasso-grafted with MET-binding peptides (SPR, Fig. 1c). In words: SPR; aMD4 grafted on Fc; divalent, not true 1:1 affinity.
Test [4] has as its target UG2 fusion of the PlxnB1-binding peptide PB1m7 (human). Kind of test: SPR.
For test [5], the target named is UG2-m6A9, single-chain tandem uteroglobin dimer grafted with the affinity-matured m6A9 peptide (human, UniProt P11684). In words: SPR.
Test [6] concerns the target UG2-m6, single-chain tandem uteroglobin dimer with the PB1m6 peptide fused between two UG monomers (human, UniProt P11684). Kind of test: SPR.
Test [7] concerns the target T1, Fc proteins lasso-grafted with PlxnB1-binding peptides (SPR, Fig. 1c). Kind of test: SPR; PB1m7 grafted on Fc; divalent, not true 1:1 affinity.
A further test addresses PB1m7 (free peptide). Kind of test: SPR; value cited from earlier paper.
A further test has as its target PB1m6A9 (free peptide). In words: SPR; value cited from earlier paper.
Test [8] concerns the target T1, Fc proteins lasso-grafted with …. In words: SPR; PB1m6A9 grafted on Fc; divalent, not true 1:1 affinity.

Broadly, the Kd is the free concentration of one partner at which half of the binding sites on the other are occupied at equilibrium, for simple one-to-one binding. High values mean weaker binding, low ones tighter binding. As a reminder, the koff is the rate constant with which the complex falls apart. Low readings indicate slow dissociation, high ones fast dissociation.

B1: human MET ectodomain fragment (residues 1-931) with C-terminal biotin acceptor sequence (domain or fragment)
chain: ECKEALAKSEMNVNMKYQLPNFTAETPIQNVILHEHHIFLGATNYIYVLNEEDLQKVAEYKTGPVLEHPDCFPCQDCSSKANLSGGVWKDNINMALVVDTYYDDQLISCGSVNRGTCQRHVFPHNHTADIQSEVHCIFSPQIEEPSQCPDCVVSALGAKVLSSVKDRFINFFVGNTINSSYFPDHPLHSISVRRLKETKDGFMFLTDQSYIDVLPEFRDSYPIKYVHAFESNNFIYFLTVQRETLDAQTFHTRIIRFCSINSGLHSYMEMPLECILTEKRKKRSTKKEVFNILQAAYVSKPGAQLARQIGASLNDDILFGVFAQSKPDSAEPMDRSAMCAFPIKYVNDFFNKIVNKNNVRCLQHFYGPNHEHCFNRTLLRNSSGCEARRDEYRTEFTTALQRVDLFMGQFSEVLLTSISTFIKGDLTIANLGTSEGRFMQVVVSRSGPSTPHVNFLLDSHPVSPEVIVEHTLNQNGYTLVITGKKITKIPLNGLGCRHFQSCSQCLSAPPFVQCGWCHDKCVRSEECLSGTWTQQICLPAIYKVFPNSAPLEGGTRLTICGWDFGFRRNNKFDLKKTRVLLGNESCTLTLSESTMNTLKCTVGPAMNKHFNMSIIISNGHGTTQYSTFSYVDPVITSISPKYGPMAGGTLLTLTGNYLNSGNSRHISIGGKTCTLKSVSNSILECYTPAQTISTEFAVKLKIDLANRETSIFSYREDPIVYEIHPTKSFISGGSTITGVGKNLNSVSVPRMVINVHEAGRNFTVACQHRSNSEIICCTTPSLQQLNLQLPLKTKAFFMLDGILSKYFDLIYVHNPVFKPFEKPVMISMGNENVLEIKGNDIDPEAVKGEVLKVGNKSCENIHLHSEAVLCTVPNDLLKLNSELNIEWKQAISSTVLGKVIVQPDQNF
modifications: biotin on the biotin acceptor sequence (BirA-mediated)
On to B1, for which the Kd is 211 nM in [1]; 91.6 nM in [2]; 2.4 nM with aMD4 (free peptide); 2.3 nM with aMD5 (free peptide); 4.5 nM in test [3]. The koff in test [1] turned out to be 0.019 s⁻¹; in test [2] it was 0.004 s⁻¹; in the test with aMD4 (free peptide), 0.003 s⁻¹; with aMD5 (free peptide), 0.011 s⁻¹; in test [3], 0.0007 s⁻¹.

B2: human PlxnB1 ectodomain fragment (residues 1-535) with C-terminal biotin acceptor sequence (domain or fragment)
chain: LQPLPPTAFTPNGTYLQHLARDPTSGTLYLGATNFLFQLSPGLQLEATVSTGPVLDSRDCLPPVMPDECPQAQPTNNPNQLLLVSPGALVVCGSVHQGVCEQRRLGQLEQLLLRPERPGDTQYVAANDPAVSTVGLVAQGLAGEPLLFVGRGYTSRGVGGGIPPITTRALWPPDPQAAFSYEETAKLAVGRLSEYSHHFVSAFARGASAYFLFLRRDLQAQSRAFRAYVSRVCLRDQHYYSYVELPLACEGGRYGLIQAAAVATSREVAHGEVLFAAFSSAAPPTVGRPPSAAAGASGASALCAFPLDEVDRLANRTRDACYTREGRAEDGTEVAYIEYDVNSDCAQLPVDTLDAYPCGSDHTPSPMASRVPLEATPILEWPGIQLTAVAVTMEDGHTIAFLGDSQGQLHRVYLGPGSDGHPYSTQSIQQGSAVSRDLTFDGTFEHLYVMTQSTLLKVPVASCAQHLDCASCLAHRDPYCGWCVLLGRCSRRSECSRGQGPEQWLWSFQPELGCLQ
modifications: biotin on the biotin acceptor sequence (BirA-mediated)
As for B2, the Kd in test [4] was 3250 nM; in [5], 8.26 nM; in test [6] it was 45.8 nM; in [7], 61.4 nM; in the test with PB1m7 (free peptide) it was 275 nM; in the test with PB1m6A9 (free peptide), 0.28 nM. Besides, in test [8], binding was put at a Kd of 0.023 nM. Besides, the koff in test [4] amounted to 0.051 s⁻¹; in test [5], 0.0014 s⁻¹; in test [6], 0.0041 s⁻¹; in test [7], 0.055 s⁻¹; with PB1m7 (free peptide) it was 0.01 s⁻¹; with PB1m6A9 (free peptide), 0.0021 s⁻¹. Further, the koff in test [8] is 0.0004 s⁻¹.

For the origin of these results see article PMC7943567 (2021).
